In patent US20230122991A1, “GROWTH FACTOR FORMULATION FOR CONDITION ASSOCIATED WITH OTIC EVENT” (OTONOMY, INC., priority 2020, published 2023):

Key:
SGNs = assay: SGN complexity, dissociated SGNs (Example D); assay type: cell-based, rat; conditions: differences upon treatment, FIG. 7D
Excerpt: SGNs were immunostained, imaged, and batch analyzed with PerkinElmer Harmony 4.6 software. Changes in the complexities of SGNs upon treatment with various agents were examined. […] All of the images in a single well were stitched together and analyzed. SGN somas are shown in the upper right panel and SGN neurites are shown in the lower left panel. As shown in the lower right panel, each neurite tree is assigned to a single cell for analysis. Depending on the stitching, occasionally neurites will not meet the criteria due to gaps that exceed a user-defined threshold.

[1] = tested on: rats after acoustic trauma; assay: Noise-induced cochlear synaptopathy, IHC synaptic puncta counts at various BDNF concentrations (Example K); assay type: in vivo, rat; conditions: at all three BDNF concentrations (0.005%, 0.05%, 0.5% BDNF in P407); Day 28; FIG. 19
Description: Animals: Male Sprague-Dawley rats (5-6 months of age) were used for efficacy studies and females (2-3 months) were used for pharmacokinetic studies.
Formulations: Human recombinant BDNF was suspended in the thermoreversible polymer Poloxamer 407 (16%) to reach a range of BDNF concentrations (0.005%, 0.05%, and 0.5% by weight).
Intratympanic (IT) injection: Formulations were administered under anesthesia as a single IT injection (20 μl) through the tympanic membrane into the middle ear, targeting the round window membrane (RWM).
Noise-induced cochlear synaptopathy: Rats received a single acoustic trauma (105 dB SPL, 8-16 kHz, 1 h) under anesthesia. 24 hours later (Day 1) animals received a single bilateral IT injection of the treatment regimens. Auditory function (ABR and ABR wave 1 amplitude) was monitored at day 1 and then every 7 days for 28 days, as illustrated in FIG. 16. At termination (Day 28), cochleae were collected and assessed for evidence of cochlear synaptopathy (IHC synaptic puncta counts).
Immunohistochemistry: Dissected cochleae were immunostained with antibodies against presynaptic (CtBP2) and postsynaptic (GluR2) proteins and MyosinVIIa to label hair cells. Cochleae were then frequency mapped and high-magnification images were obtained with a Zeiss LSM-880 confocal microscope and imaged at an interval of 0.35 μm.

noise exposed adult rats = assay: Noise-induced hearing loss/synaptopathy, synaptic analysis of inner hair cells (Example A1); assay type: in vivo, rat; conditions: sustained release formulation, 0.005% BDNF in Poloxamer 407, single unilateral intratympanic administration 24 hrs after noise; Day 28; compared to vehicle treatment; FIG. 3B
Description: Male rats (Charles River) approximately 10-11 months of age served as subjects (N=6 per group). Prior to any procedures, animals were anesthetized using a combination of xylazine (10 mg/kg) and ketamine (90 mg/kg) for up to one hour via the intraperitoneal route. If needed, an intraoperative booster was administered intraperitoneally representing one-tenth of the original dose.
Noise exposure—Anesthetized animals (4 at a time) were placed in an enclosure and exposed to noise. The characteristics of the acoustic trauma were as follows: a single period of 1 h, sound pressure level of 105 dB SPL with a narrow band pass of 8-16 kHz. Noise was delivered using a Grason Stadler white noise generator, filtered through a Krohn Hite 3750 unit, amplified using a Crown D75 unit, and conveyed via a JBL speaker (model 2446H). Following treatment, the animals were returned to the vivarium. Noise exposure was calibrated over a range of 80-115 dB SPL across a wide range of frequencies using the Acoustical Interface Precision Microphone System and the Tucker Davis Technologies system. […]
Synaptic Analysis—Flat-mounted cochlear pieces from each ear were imaged at low magnification (10×) and the total length of the imaged tissue was measured and the frequency domains (4, 10, 20 and 40 kHz) were mapped onto the images. […]

B1: brain-derived neurotrophic factor (protein, UniProt P23560 129-247, looked up)
Neurotrophic factor BDNF: HSDPARRGELSVCDSISEWVTAADKKTAVDMSGGTVTVLEKVPVSKGQLKQYFYETKCNPMGYTKEGCRGIDKRHWNSQCRTTQSYVRALTMDSKKRIGWRFIRIDTSCVCTLTIKRGR
modifications: Neurotrophic factor BDNF in 16% poloxamer 407 gel
notes: Human recombinant BDNF
total neurite length, total number of extremities, segments, and nodes per cell (SGNs): not statistically significant
synaptic puncta (co-expression of CtBp2 and GluR2) per inner hair cell [1]: increased
number of ribbon synapses per inner hair cell (noise exposed adult rats): increased
